In test [1] the target is T1, chicken LAP-TGFβ1 on HT1080 cells (chicken, UniProt P09531 19-391).
T1 construct: also called chB1
T1 sequence: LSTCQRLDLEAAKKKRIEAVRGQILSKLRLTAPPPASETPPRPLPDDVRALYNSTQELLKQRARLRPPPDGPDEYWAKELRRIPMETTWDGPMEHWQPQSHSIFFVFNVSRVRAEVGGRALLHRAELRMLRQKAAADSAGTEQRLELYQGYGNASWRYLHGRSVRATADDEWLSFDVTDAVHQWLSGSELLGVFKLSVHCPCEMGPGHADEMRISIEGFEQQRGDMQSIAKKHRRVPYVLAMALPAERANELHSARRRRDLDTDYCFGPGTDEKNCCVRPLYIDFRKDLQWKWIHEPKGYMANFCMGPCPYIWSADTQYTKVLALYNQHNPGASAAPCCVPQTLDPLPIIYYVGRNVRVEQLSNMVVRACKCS
Nature of the test: flow cytometry, HT1080 cells. On the procedure: (§1) These constructs were subcloned into lentivirus and transduced into HT1080 cells. Successful gene integration was confirmed by expression of a green fluorescent protein (GFP) reporter gene. LAP-TGFβ1 expression was evaluated by flow cytometry using a rabbit monoclonal antibody (Rmab) raised against a peptide from the mature cytokine (residues 250-361) domain (Abeam cat #ab179695), 28G11_(hyb) and 2C9_(hyb). Briefly, 4×10⁵ each of (a) HT1080 cells, (b) HT1080 cells overexpressing human LAP-TGFβ1, (c) HT1080 cells overexpressing chicken LAP-TGFβ1, and (d) HT1080 cells overexpressing human/chicken chimeras #1-#7 were cultured in 96-well plates. The plates were centrifuged for 5 min at 1,500 rpm, liquid was removed, and cells were resuspended with 200 μL FACS buffer. The plates were centrifuged again, diluted primary antibody was added to each well, and the plates were incubated on ice for 20 minutes, followed by centrifugation. The cells were resuspended in 200 μL FACS buffer, centrifuged again, and resuspended in 50 μL diluted secondary antibody (APC-anti-Mouse IgG). The plates were incubated on ice for 20 minutes in the dark, washed twice with 200 μL FACS buffer, and cells from each well (in 200 μL FACS buffer) were read on the Attune NXT instrument. The antibodies were considered to be binding if >10% of cells were GFP+/APC+ and there was visible correlation between the GFP and allophycocyanin (APC) signals (Table 5).

Test [2] addresses T2, human-chicken LAP-TGFβ1 chimera #2.1 on HT1080 cells (human/chicken chimera, UniProt P01137 30-390). Nature of the test: flow cytometry, HT1080 cells. On the procedure: as §1
Test [3] concerns the target T3, human-chicken LAP-TGFβ1 chimera #2.2 on HT1080 cells (human/chicken chimera, UniProt P01137 30-390).
T3 construct: also called HT1080-ch2.2
Nature of the test: flow cytometry, HT1080 cells. On the procedure: as §1
A general note: In flow cytometry, cells or beads pass a laser one at a time.

Test [4] concerns the target T4, human LAP-TGFβ1 overexpressed on cells (human, UniProt P01137 30-390).
T4 construct: HT1080 or P3U1 cells overexpressing wild-type human LAP-TGFβ1; also called HT1080-huB1; HT1080-hβ1
Nature of the test: flow cytometry, transduced HT1080 cells. On the procedure:
as §1

Test [5] concerns the target T1, chicken LAP-TGFβ1 on HT1080 cells. The experiment in a line: flow cytometry, transduced HT1080 cells. On the procedure: as §1
Test [6] addresses human-chicken LAP-TGFβ1 chimera #1.2 on HT1080 cells (human/chicken chimera, UniProt P01137 30-390). Nature of the test: flow cytometry, transduced HT1080 cells. On the procedure:
as §1

The target of test [7] is human-chicken LAP-TGFβ1 chimera #1.3 on HT1080 cells (human/chicken chimera, UniProt P01137 30-390). Nature of the test: flow cytometry, transduced HT1080 cells. On the procedure:
as §1

The target of test [8] is T2, human-chicken LAP-TGFβ1 chimera #2.1 on …. The experiment in a line: flow cytometry, transduced HT1080 cells. On the procedure:
as §1

Test [9] deals with T3, human-chicken LAP-TGFβ1 chimera #2.2 on …. Nature of the test: flow cytometry, transduced HT1080 cells. On the procedure: as §1
Test [10] has as its target T5, human-chicken LAP-TGFβ1 chimera #2.3 on HT1080 cells (human/chicken chimera, UniProt P01137 30-390).
T5 construct: also called HT1080-ch2.3
The experiment in a line: flow cytometry, transduced HT1080 cells. On the procedure: as §1

Test [11] deals with human-chicken LAP-TGFβ1 chimera #3 on HT1080 cells (human/chicken chimera, UniProt P01137 30-390). Nature of the test: flow cytometry, transduced HT1080 cells. On the procedure:
as §1

For test [12], the target named is T6, human-chicken LAP-TGFβ1 chimera #4 on HT1080 cells (human/chicken chimera, UniProt P01137 30-390).
T6 construct: also called HT1080-ch4
T6 sequence (P01137 other isoform, or with tags, fused parts or gaps mutant): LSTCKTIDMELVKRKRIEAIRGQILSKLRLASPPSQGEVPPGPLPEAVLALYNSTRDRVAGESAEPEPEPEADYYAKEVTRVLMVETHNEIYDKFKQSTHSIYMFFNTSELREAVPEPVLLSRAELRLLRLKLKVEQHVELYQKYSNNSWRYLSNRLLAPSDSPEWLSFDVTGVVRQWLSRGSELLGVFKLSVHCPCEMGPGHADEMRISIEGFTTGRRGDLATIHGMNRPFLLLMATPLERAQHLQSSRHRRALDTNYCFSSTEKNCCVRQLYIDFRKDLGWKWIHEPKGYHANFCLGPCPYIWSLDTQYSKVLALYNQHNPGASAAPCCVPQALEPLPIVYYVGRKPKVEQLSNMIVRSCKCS
Nature of the test: flow cytometry, transduced HT1080 cells. On the procedure:
as §1

Test [13] addresses human-chicken LAP-TGFβ1 chimera #5 on HT1080 cells (human/chicken chimera). The experiment in a line: flow cytometry, transduced HT1080 cells. On the procedure:
as §1

Test [14] addresses human-chicken LAP-TGFβ1 chimera #6 on HT1080 cells (human/chicken chimera, UniProt P01137 30-390). Nature of the test: flow cytometry, transduced HT1080 cells. On the procedure: as §1
The target in test [15] is human-chicken LAP-TGFβ1 chimera #7 on HT1080 cells (human/chicken chimera, UniProt P01137 30-390). The experiment in a line: flow cytometry, transduced HT1080 cells. On the procedure:
as §1

For test [16], the target named is T7, LAP-TGFβ1 on U937 cells (Homo sapiens, UniProt P01137).
T7 construct: cell surface, endogenous; also called LAP+ U937 cells
T7 sequence (P01137 30-390 limits assumed): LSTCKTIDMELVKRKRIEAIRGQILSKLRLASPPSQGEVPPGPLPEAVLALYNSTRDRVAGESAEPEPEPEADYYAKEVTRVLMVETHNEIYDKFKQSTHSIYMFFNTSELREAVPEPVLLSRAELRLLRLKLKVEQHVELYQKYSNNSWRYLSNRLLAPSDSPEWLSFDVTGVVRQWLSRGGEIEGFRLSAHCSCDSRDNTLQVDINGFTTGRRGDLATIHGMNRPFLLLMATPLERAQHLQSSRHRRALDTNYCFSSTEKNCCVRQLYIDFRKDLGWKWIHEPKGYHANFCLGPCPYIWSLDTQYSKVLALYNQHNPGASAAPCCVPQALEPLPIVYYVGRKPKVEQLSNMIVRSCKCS
Nature of the test: flow cytometry, U937 cells, Alexa 647 antibody, % LAP+ cells. On the procedure: (§2) Anti-LAP antibodies were tested for their ability to bind to U937 cells, a myeloid cell line derived from a patient with histiocytic lymphoma. U937 cells were incubated with FACS buffer and human Fc block followed by incubation with varying concentrations of Alexa 647 conjugated 28G11_hyb, 22F9_mIgG2a, or 20E6_mIgG2a. In a separate experiment U937 cells were incubated with FACS buffer and human Fc block followed by incubation with 10 ug/ml of Alexa 647 conjugated 28G11_hyb, 22F9_mIgG2a, 20E6_mIgG2a or mIgG2a isotype control (FIGS. 10E and 10F). Representative dot plots are shown in FIG. 10G; in these plots, antibodies were at 10 ug/ml.

In test [17] the target is T7, LAP-TGFβ1 on U937 cells. The experiment in a line: flow cytometry dot plot against GARP, U937 cells, Alexa 647 antibody at 10 ug/ml. On the procedure:
as §2

We go through 1 molecule from patent publication US20220017612A1 (TILOS THERAPEUTICS, published 2022).

T2 sequence (P01137 other isoform, or with tags, fused parts or gaps mutant): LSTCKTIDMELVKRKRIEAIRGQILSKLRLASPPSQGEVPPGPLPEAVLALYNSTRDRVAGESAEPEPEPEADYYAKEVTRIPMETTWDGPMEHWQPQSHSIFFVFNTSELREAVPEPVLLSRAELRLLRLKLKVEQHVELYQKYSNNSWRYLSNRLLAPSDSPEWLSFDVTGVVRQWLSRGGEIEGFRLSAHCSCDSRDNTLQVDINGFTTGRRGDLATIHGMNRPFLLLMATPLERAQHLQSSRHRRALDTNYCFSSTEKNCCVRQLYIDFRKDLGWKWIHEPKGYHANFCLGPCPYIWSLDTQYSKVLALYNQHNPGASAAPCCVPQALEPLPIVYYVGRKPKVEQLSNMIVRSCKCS
T3 sequence (P01137 other isoform, or with tags, fused parts or gaps mutant): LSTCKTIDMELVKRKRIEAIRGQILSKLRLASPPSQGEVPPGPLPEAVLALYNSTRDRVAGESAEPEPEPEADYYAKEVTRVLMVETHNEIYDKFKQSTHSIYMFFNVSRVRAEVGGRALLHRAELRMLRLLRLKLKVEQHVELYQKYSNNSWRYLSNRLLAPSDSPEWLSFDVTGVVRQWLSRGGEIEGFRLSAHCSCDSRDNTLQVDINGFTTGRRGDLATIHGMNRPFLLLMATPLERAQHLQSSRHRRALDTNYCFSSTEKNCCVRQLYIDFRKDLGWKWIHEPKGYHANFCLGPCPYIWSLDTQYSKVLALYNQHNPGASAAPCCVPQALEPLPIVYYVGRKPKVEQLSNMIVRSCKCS
T4 sequence (P01137 30-390): as the sequence (P01137 30-390 limits assumed) above
T5 sequence (P01137 other isoform, or with tags, fused parts or gaps mutant): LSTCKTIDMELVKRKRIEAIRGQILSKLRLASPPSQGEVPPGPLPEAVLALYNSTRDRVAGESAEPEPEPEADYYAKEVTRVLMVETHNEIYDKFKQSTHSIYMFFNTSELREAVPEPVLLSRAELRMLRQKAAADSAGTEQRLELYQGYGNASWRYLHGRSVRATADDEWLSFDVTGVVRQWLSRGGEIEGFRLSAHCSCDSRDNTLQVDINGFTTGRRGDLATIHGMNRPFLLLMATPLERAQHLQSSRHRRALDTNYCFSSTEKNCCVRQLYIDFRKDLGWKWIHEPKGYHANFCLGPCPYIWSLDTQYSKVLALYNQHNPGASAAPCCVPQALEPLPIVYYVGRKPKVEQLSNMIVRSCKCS
Sequence of human-chicken LAP-TGFβ1 chimera #1.3 on HT1080 cells (P01137 other isoform, or with tags, fused parts or gaps mutant): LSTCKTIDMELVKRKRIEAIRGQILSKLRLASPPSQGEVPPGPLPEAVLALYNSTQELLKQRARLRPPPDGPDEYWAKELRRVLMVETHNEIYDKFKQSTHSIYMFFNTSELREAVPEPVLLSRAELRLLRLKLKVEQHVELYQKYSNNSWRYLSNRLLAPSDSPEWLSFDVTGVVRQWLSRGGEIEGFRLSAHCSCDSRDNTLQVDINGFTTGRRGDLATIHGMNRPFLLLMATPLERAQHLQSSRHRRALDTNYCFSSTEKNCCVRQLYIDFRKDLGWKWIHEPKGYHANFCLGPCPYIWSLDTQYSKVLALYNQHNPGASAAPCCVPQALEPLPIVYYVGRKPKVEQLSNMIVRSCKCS
Sequence of human-chicken LAP-TGFβ1 chimera #1.2 on HT1080 cells (P01137 other isoform, or with tags, fused parts or gaps mutant): as the sequence (P01137 30-390 limits assumed) above, with A31T, S32A, S35P, Q36A, G37S, V39T, G42R, E46D, A47D, L49R counted along it
Sequence of human-chicken LAP-TGFβ1 chimera #6 on HT1080 cells (P01137 other isoform, or with tags, fused parts or gaps mutant): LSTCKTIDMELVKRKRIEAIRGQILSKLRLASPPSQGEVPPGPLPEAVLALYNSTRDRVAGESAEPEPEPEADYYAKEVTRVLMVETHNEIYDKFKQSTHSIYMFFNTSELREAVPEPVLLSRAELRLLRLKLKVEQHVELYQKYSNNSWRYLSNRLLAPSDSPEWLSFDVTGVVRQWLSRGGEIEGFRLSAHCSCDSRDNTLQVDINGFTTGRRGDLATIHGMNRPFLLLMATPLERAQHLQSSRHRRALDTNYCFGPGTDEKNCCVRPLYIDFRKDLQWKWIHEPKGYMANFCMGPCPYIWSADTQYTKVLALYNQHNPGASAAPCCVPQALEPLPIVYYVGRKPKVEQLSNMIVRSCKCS
Sequence of human-chicken LAP-TGFβ1 chimera #5 on HT1080 cells (human/chicken chimera) (chain, as listed by the source mutant limits assumed): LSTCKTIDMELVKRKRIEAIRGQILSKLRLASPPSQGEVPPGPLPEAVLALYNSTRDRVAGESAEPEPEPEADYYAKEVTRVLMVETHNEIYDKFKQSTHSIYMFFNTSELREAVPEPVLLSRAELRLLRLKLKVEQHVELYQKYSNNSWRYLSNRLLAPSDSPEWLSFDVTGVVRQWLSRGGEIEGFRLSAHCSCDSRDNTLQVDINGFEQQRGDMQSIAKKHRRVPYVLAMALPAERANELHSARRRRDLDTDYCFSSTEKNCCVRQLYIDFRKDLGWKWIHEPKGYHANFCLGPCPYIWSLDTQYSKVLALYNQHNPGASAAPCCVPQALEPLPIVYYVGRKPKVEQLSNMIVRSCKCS
Sequence of human-chicken LAP-TGFβ1 chimera #3 on HT1080 cells (P01137 other isoform, or with tags, fused parts or gaps mutant): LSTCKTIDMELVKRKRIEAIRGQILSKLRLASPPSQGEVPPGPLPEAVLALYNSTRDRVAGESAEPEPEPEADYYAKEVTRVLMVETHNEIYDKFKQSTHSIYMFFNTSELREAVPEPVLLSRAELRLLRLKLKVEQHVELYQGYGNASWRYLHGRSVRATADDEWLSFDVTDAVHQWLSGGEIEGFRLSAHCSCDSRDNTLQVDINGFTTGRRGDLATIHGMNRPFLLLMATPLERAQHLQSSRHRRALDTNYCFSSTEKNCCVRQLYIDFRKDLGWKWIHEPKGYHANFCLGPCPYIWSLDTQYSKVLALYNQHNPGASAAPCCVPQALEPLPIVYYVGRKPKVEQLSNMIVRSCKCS

B1: 28G11_(hyb) (antibody, mouse IgG2b, kappa, V domains shown)
VH: EVKLVESGGGLVQPGGSLSLSCAASGFTFTDYYMSWVRQPPGKALEWLGFIRNKPNGYTTEYSASVKGRFTISRDNSQSILYLQMNVLRAEDSATYYCARYTGGGYFDYWGQGTTLTVSS
VL: DIQMTQTTSSLSASLGDRLTISCRASQDISNYLNWYQQKPDGTVKLLIYYTSRLHSGVPSRFSGSGSGTDYSLTISNLEQADIATYFCQQGDTLPWTFGGGTKLEIKR
notes: parental murine antibody; also called murine hybridoma 28G11; biotin-28G11
One may read the EC50 (read off the curve) as the concentration giving half of the maximal effect. Read a high EC50 (read off the curve) as lower potency in that assay. As for B1, the binding result in test [1], in [2] and in [3] was “no binding” in each case. Besides, the “% GFP+/APC+ cells” value in [4] was determined as 98.3%; in [5], 0.3%; in [6] it was 84.1%; in test [7], 83%; in test [8] it was 3.5%; in test [9], 0.5%. The “% GFP+/APC+ cells” value in test [10] worked out at 94.7%; in test [11] it was 32.2%; in [12], 76.2%; in test [13], 41.7%; in test [14] it was 84.9%; in [15], 44.4%. Moreover, in [16], the “EC50 (read off the curve)” value is about 30 µg/mL. For the same molecule, the “% of cells in Q1 (antibody axis positive, GARP negative)” value in [17] was 6.56%. The “% of cells in Q2 (antibody axis positive, GARP positive)” value in test [17] was determined as 0.16%.
